The text below walks through data of publication PMC5670201 (2017).

This experiment deals with nab-paclitaxel nanoparticles (human, UniProt P02768 25-609). Briefly: BLI. A general note: BLI is a label-free optical method that tracks binding on a fibre tip over time.

A word on the Kd: it is a measure of binding affinity in units of concentration.

B1: biotinylated bevacizumab (antibody, V domains shown)
VH: EVQLVESGGGLVQPGGSLRLSCAASGYTFTNYGMNWVRQAPGKGLEWVGWINTYTGEPTYAADFKRRFTFSLDTSKSTAYLQMNSLRAEDTAVYYCAKYPHYYGSSHWYFDVWGQGTLVTVSS
VL: DIQMTQSPSSLSASVGDRVTITCSASQDISNYLNWYQQKPGKAPKVLIYFTSSLHSGVPSRFSGSGSGTDFTLTISSLQPEDFATYYCQQYSTVPWTFGQGTKVEIK
modifications: biotin (sites not given) | biotin (sites not given)
As for B1, binding was put at a Kd of 4.51 µM.
